Source: doi:10.1101/2021.02.10.430713

Molecular target: Listeria monocytogenes c-di-AMP effector protein Lmo0553 (Listeria monocytogenes)
Assay: crystal structure

Q: For “Listeria monocytogenes c-di-AMP effector protein Lmo0553 (natural protein)”, which stoichiometry N is on record?
A: The stoichiometry N was 2.
